According to patent US12570744 (AstraZeneca / MedImmune, dated 2026):
Numbering of substitutions follows the chain as printed. Values belong to the binder of their own block, whether it stands above or below them.

What was measured:
[1] = target: T1, human PD-1 expressed on the cell surface of engineered Jurkat cells (human, UniProt Q15116 25-288); test: cell-based or functional assay
[2] = target: T1, human PD-1 expressed on the cell …; test: flow cytometry on PD-1^+ Jurkat cells, Experiment #2
[3] = target: T1, human PD-1 expressed on the cell …; test: flow cytometry on PD-1^+ Jurkat cells, Experiment #1
[4] = target: T1, human PD-1 expressed on the cell …; test: flow cytometry on PD-1^+ Jurkat cells, mean of two experiments
[5] = target: T1, human PD-1 expressed on the cell …; test: flow cytometry on PD-1^+ Jurkat cells (the reference itself)
[6] = target: T2, human TIGIT expressed on the cell surface (human, UniProt Q495A1 22-244); test: flow cytometry on TIGIT^+ Jurkat cells, Experiment #2
T2 construct: whole, on cells; also called Jurkat PD-1^-TIGIT^+ cells; TIGIT^+ Jurkat cells
T2 sequence (looked up): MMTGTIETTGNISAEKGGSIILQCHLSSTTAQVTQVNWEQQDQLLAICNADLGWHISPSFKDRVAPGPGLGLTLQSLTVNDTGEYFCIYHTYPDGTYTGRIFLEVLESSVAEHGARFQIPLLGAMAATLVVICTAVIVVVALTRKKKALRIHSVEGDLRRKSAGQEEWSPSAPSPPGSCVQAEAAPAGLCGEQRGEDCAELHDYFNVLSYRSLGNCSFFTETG

[7] = target: T2, human TIGIT expressed on the cell …; test: flow cytometry on TIGIT^+ Jurkat cells (the reference itself)
[8] = target: T2, human TIGIT expressed on the cell …; test: cell-based or functional assay
[9] = target: T2, human TIGIT expressed on the cell …; test: flow cytometry on TIGIT^+ Jurkat cells, mean of two experiments
[10] = target: T2, human TIGIT expressed on the cell …; test: flow cytometry on TIGIT^+ Jurkat cells, Experiment #1
[11] = target: T2, human TIGIT expressed on the cell …; test: flow cytometry (MFI) on 293 cells overexpressing human TIGIT; Kd row of the table under the graph, the concentration axis is [nM]
[12] = target: T3, cynomolgus TIGIT overexpressed on 293 cells (cynomolgus, UniProt A0A7N9I9V4 89-312); test: flow cytometry (MFI) on 293 cells overexpressing cynomolgus TIGIT; Kd row of the table under the graph, the concentration axis is [nM]
T3 construct: whole, on cells

[13] = target: T2, human TIGIT expressed on the cell …; test: flow cytometry (MFI) on 293 cells overexpressing human TIGIT
[14] = target: T4, muTIGIT (mouse TIGIT, recombinant) (mouse (printed as 'mu'), UniProt P86176 29-148, limits assumed); test: SPR (BIAcore T200), PD-1/TIGIT DuetMab sample, muTIGIT as ligand
T4 construct: Ligand in the BIAcore assay; The construct is not described
T4 sequence (looked up): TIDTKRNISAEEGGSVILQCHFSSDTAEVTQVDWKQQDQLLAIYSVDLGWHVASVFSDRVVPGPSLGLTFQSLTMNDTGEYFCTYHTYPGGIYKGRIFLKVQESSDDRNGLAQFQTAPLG
Procedure: (§1) Binding experiments were carried out using a BIAcore T200 instrument (BIAcore).

[15] = target: T5, cyTIGIT (cynomolgus TIGIT, recombinant) (cynomolgus, UniProt A0A7N9I9V4 89-209); test: SPR (BIAcore T200), PD-1/TIGIT DuetMab sample, cyTIGIT as ligand
T5 construct: Ligand in the BIAcore assay; The construct is not described
Procedure: as §1

[16] = target: T6, recombinant human TIGIT protein (human, UniProt Q495A1 22-141); test: SPR (BIAcore T200), PD-1/TIGIT DuetMab sample, huTIGIT as ligand
T6 construct: In the Octet assay it was used biotinylated on streptavidin sensors or in solution; Construct and tags are not described; also called huTIGIT; human TIGIT antigen
T6 sequence (looked up): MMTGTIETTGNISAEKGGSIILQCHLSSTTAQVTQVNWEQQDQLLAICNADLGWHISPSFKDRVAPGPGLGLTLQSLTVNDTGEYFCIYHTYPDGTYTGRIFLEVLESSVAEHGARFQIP
Procedure: as §1

T5 sequence (A0A7N9I9V4 entry or part of it): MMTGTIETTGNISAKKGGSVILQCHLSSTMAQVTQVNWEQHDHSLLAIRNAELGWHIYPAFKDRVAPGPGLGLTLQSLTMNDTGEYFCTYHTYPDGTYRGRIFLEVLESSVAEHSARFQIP
T1 sequence (Q15116 25-288, change not shown): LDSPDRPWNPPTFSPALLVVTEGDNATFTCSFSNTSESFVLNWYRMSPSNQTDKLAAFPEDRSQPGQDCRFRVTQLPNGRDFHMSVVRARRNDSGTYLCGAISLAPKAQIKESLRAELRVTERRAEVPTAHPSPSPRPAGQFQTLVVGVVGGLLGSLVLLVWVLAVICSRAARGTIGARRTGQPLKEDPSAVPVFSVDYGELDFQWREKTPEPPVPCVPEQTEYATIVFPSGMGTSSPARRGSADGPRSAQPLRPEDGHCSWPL
T3 sequence (A0A7N9I9V4 entry or part of it): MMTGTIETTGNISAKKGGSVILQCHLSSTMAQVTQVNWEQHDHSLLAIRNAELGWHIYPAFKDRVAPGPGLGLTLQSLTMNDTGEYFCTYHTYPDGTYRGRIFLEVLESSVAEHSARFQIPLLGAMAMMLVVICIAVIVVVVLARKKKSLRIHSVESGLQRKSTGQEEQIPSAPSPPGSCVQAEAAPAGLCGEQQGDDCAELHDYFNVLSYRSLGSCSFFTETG

EC50 (nM), NFAT-luciferase reporter, Experiment #1 [1]: 1.93 nM | EC50 (nM), NFAT-luciferase reporter, Experiment #2 [1]: 4.14 nM | Fold Change of Mean EC50 vs. Anti-PD-1 [1]: 1 fold | Mean EC50 (nM), NFAT-luciferase reporter [1]: 3.03 nM | EC50 [2]: 0.985 nM | EC50 [3]: 0.349 nM | EC50 [4]: 0.667 nM | Fold Change vs. anti-PD-1 (mean EC50) [5]: 1 fold
B1: monospecific anti-PD1 (LO115) bivalent mAb (antibody, V domains shown)
VH: EVQLVESGGGLVQPGGSLRLSCAASGFTFSDYGMHWVRQAPGKGLEWVAYISSGSYTIYSADSVKGRFTISRDNAKNSLYLQMNSLRAEDTAVYYCARRAPNSFYEYYFDYWGQGTTVTVSS
VL: QIVLTQSPATLSLSPGERATLSCSASSKHTNLYWSRHMYWYQQKPGQAPRLLIYLTSNRATGIPARFSGSGSGTDFTLTISSLEPEDFAVYYCQQWSSNPFTFGQGTKLEIK
notes: Bivalent mAb; also called bivalent anti-PD-1 antibody; parental bivalent anti-PD-1 antibody

EC50 [6]: 0.147 nM | Fold Change vs. anti-TIGIT (mean EC50) [7]: 1 fold | EC50 (nM), NFAT-luciferase reporter, Experiment #1 [8]: 1.59 nM | EC50 (nM), NFAT-luciferase reporter, Experiment #2 [8]: 2.85 nM | Fold Change of Mean EC50 vs. Anti-TIGIT [8]: 1 fold | Mean EC50 (nM), NFAT-luciferase reporter [8]: 2.22 nM | EC50 [9]: 0.119 nM | EC50 [10]: 0.092 nM
B2: monospecific anti-TIGIT (VAR1) bivalent mAb (antibody, V domains shown)
VH: QVQLVESGGGVVQPGRSLRLSCAASGFTFSSYAMHWVRQAPGKGLEWVAVISYAGEVKYYADSVKGRFTISRDNSKNTLYLQMNSLRAEDTAVYYCARDPLPLHYYGMDVWGQGTTVTVSS
VL: QSVLTQPPSASGTPGQRVTISCSGSSSNIGRRPVNWYQQLPGTAPKLLIYSQNQRPSGVPDRFSGSQSGTSASLAISGLQSEDEADYFCAVWDDIGRVLQLGGGTQLTVL
notes: Bivalent mAb; also called anti-TIGIT mAb; bivalent anti-TIGIT antibody

Kd [11]: 4.43 nM | EC50 (read off the curve) [13]: ~4 nM | Kd [12]: 23.6 nM
B4: VL GL + VH WT (VAR1 variant DuetMab) (bispecific antibody)
chain 1: B1 VH
chain 2: B1 VL
chain 3: B2 VH with Q1E, S7T, V11L, V12I
chain 4: B2 VL with I29M

More lines, now with the values behind:

B3: VL WT + VH GL (VAR1 variant DuetMab) (bispecific antibody, V domains shown)
VH 1: B1 VH
VL 1: B1 VL
VH 2: B2 VH
VL 2: B2 VL with V3A, P8R, T13N, I29M, L40I, A75T, D86E, T108A
Kd [11]: 3.09 nM | Kd [12]: 10.8 nM

B5: VL GL + VH GL (VAR1 variant DuetMab) (bispecific antibody)
chain 1: B1 VH
chain 2: B1 VL
chain 3: B2 VH
chain 4: B2 VL with I29M
Kd [11]: 3.28 nM | Kd [12]: 14.7 nM

B6: PD1-TIGIT duetMab LO115/P-VAR1(VHWT-VLWT) (bispecific antibody, V domains shown)
VH 1: B1 VH
VL 1: B1 VL
VH 2: B2 VH with Q1E, S7T, V11L, V12I
VL 2: B2 VL with V3A, P8R, T13N, I29M, L40I, A75T, D86E, T108A
notes: DuetMab format; also called parental VAR1; P-VAR1 w.t; DuetMab
Kd [11]: 2.56 nM | Kd [14]: 2.3 nM | koff [14]: 0.00378 s⁻¹ | kon [14]: 1.66e+06 M⁻¹ s⁻¹ | EC50 (read off the curve) [13]: ~2 nM | Kd [15]: 32.1 nM | koff [15]: 0.0329 s⁻¹ | kon [15]: 1.03e+06 M⁻¹ s⁻¹ | Kd [16]: 0.0099 nM | koff [16]: 4.64e-05 s⁻¹ | kon [16]: 4.67e+06 M⁻¹ s⁻¹ | Kd [12]: 11.2 nM
